The results in this text go back to US20150344570A1 (published 2015).

B1: GpH7-B3 variant A327_09D/GpL16-k0 (antibody, human IgG1, kappa)
heavy: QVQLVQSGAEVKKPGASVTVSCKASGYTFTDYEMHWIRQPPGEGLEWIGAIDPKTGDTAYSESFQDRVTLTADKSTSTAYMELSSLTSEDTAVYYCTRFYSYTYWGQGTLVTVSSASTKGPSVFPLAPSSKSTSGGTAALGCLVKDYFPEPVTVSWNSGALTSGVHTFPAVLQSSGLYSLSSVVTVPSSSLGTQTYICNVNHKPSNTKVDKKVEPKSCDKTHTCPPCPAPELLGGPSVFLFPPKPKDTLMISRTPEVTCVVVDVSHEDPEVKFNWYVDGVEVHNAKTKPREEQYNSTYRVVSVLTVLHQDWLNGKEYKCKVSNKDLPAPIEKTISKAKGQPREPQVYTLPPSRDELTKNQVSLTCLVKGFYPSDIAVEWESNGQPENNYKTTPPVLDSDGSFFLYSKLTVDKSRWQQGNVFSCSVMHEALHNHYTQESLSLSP
light: DIVMTQSPLSLPVTPGEPASISCQASESLVHSNRNTYLHWYLQKPGQSPQLLIYKVSNRFSGVPDRFSGSGSGTDFTLKISRVEAEDVGVYYCSQNTHVPPTFGQGTKVEIERTVAAPSVFIFPPSDEQLKSGTASVVCLLNNFYPREAKVQWKVDNALQSGNSQESVTEQDSKDSTYSLSSTLTLSKADYEKHKVYACEVTHQGLSSPVTKSFNRGEC
notes: also called Ho Ab A327_09D
B2: GpH7-B3 variant A330_01G/GpL16-k0 (antibody, human IgG1, kappa)
heavy: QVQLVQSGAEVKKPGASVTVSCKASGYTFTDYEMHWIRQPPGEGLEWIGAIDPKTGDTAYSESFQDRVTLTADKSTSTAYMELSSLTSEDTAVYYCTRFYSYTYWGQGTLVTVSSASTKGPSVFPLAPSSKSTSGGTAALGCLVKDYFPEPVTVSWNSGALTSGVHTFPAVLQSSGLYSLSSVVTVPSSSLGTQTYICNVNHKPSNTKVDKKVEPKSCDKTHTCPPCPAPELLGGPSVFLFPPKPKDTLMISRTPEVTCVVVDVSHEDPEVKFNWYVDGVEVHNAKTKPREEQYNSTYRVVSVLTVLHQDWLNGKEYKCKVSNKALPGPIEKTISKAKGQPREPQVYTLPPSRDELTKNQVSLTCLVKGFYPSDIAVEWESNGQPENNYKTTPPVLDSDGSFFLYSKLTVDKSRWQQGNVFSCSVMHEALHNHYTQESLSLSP
light: DIVMTQSPLSLPVTPGEPASISCQASESLVHSNRNTYLHWYLQKPGQSPQLLIYKVSNRFSGVPDRFSGSGSGTDFTLKISRVEAEDVGVYYCSQNTHVPPTFGQGTKVEIERTVAAPSVFIFPPSDEQLKSGTASVVCLLNNFYPREAKVQWKVDNALQSGNSQESVTEQDSKDSTYSLSSTLTLSKADYEKHKVYACEVTHQGLSSPVTKSFNRGEC
notes: also called Ho Ab A330_01G
B3: GpH7-B3 variant G236_10E/GpL16-k0 (antibody, human IgG1, kappa)
heavy: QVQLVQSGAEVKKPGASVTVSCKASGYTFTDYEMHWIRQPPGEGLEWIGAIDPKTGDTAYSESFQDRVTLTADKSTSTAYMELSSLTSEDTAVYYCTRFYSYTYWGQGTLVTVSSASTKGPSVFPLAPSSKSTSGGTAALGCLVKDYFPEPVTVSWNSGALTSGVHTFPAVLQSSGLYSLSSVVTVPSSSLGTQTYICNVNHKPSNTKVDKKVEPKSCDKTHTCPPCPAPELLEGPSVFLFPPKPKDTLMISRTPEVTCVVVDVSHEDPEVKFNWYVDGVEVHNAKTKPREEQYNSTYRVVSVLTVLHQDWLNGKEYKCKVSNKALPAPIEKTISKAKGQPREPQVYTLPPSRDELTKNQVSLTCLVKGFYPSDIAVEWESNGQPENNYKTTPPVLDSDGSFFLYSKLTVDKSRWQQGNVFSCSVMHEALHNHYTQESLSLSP
light: DIVMTQSPLSLPVTPGEPASISCQASESLVHSNRNTYLHWYLQKPGQSPQLLIYKVSNRFSGVPDRFSGSGSGTDFTLKISRVEAEDVGVYYCSQNTHVPPTFGQGTKVEIERTVAAPSVFIFPPSDEQLKSGTASVVCLLNNFYPREAKVQWKVDNALQSGNSQESVTEQDSKDSTYSLSSTLTLSKADYEKHKVYACEVTHQGLSSPVTKSFNRGEC
notes: also called Ho Ab G236_10E
B4: GpH7-B3 variant H268_01G/GpL16-k0 (antibody, human IgG1, kappa)
heavy: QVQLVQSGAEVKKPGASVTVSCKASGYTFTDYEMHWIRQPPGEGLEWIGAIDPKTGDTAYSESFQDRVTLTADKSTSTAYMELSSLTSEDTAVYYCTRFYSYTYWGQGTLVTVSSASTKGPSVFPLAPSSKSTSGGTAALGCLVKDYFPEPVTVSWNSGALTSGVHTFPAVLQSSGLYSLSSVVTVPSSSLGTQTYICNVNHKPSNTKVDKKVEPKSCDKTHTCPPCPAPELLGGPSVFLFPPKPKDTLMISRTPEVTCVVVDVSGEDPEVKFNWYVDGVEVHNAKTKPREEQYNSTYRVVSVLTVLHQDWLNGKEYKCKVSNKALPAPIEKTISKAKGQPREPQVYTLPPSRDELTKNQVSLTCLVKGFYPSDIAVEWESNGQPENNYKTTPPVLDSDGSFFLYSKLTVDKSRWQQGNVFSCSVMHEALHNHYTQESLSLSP
light: DIVMTQSPLSLPVTPGEPASISCQASESLVHSNRNTYLHWYLQKPGQSPQLLIYKVSNRFSGVPDRFSGSGSGTDFTLKISRVEAEDVGVYYCSQNTHVPPTFGQGTKVEIERTVAAPSVFIFPPSDEQLKSGTASVVCLLNNFYPREAKVQWKVDNALQSGNSQESVTEQDSKDSTYSLSSTLTLSKADYEKHKVYACEVTHQGLSSPVTKSFNRGEC
notes: also called Ho Ab H268_01G
B5: GpH7-B3 variant G237_20W/GpL16-k0 (antibody, human IgG1, kappa)
heavy: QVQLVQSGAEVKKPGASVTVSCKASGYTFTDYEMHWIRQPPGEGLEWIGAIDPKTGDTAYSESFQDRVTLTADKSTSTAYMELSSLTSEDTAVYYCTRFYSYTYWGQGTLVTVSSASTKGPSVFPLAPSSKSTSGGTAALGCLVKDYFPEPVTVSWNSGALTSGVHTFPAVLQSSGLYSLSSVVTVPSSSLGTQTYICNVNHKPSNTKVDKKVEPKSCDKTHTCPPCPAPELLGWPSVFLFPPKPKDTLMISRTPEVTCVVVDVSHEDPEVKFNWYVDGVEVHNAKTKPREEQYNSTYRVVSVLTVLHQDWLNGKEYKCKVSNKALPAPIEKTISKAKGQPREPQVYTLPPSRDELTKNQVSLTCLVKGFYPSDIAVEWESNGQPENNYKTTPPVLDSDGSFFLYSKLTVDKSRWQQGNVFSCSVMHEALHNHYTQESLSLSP
light: DIVMTQSPLSLPVTPGEPASISCQASESLVHSNRNTYLHWYLQKPGQSPQLLIYKVSNRFSGVPDRFSGSGSGTDFTLKISRVEAEDVGVYYCSQNTHVPPTFGQGTKVEIERTVAAPSVFIFPPSDEQLKSGTASVVCLLNNFYPREAKVQWKVDNALQSGNSQESVTEQDSKDSTYSLSSTLTLSKADYEKHKVYACEVTHQGLSSPVTKSFNRGEC
notes: also called Ho Ab G237_20W
B6: GpH7-B3 variant G237_04F/GpL16-k0 (antibody, human IgG1, kappa)
heavy: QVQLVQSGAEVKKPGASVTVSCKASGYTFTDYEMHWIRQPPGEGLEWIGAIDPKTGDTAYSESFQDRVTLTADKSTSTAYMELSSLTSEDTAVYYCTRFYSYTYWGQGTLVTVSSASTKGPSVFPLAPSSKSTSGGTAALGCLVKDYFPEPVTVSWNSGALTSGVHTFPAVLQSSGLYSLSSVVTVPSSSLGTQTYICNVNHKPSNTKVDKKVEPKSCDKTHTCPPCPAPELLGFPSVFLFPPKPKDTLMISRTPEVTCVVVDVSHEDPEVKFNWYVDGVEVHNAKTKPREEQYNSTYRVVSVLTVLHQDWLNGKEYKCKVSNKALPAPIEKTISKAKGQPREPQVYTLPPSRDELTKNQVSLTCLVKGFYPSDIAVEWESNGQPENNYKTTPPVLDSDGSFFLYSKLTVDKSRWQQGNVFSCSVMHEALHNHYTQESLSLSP
light: DIVMTQSPLSLPVTPGEPASISCQASESLVHSNRNTYLHWYLQKPGQSPQLLIYKVSNRFSGVPDRFSGSGSGTDFTLKISRVEAEDVGVYYCSQNTHVPPTFGQGTKVEIERTVAAPSVFIFPPSDEQLKSGTASVVCLLNNFYPREAKVQWKVDNALQSGNSQESVTEQDSKDSTYSLSSTLTLSKADYEKHKVYACEVTHQGLSSPVTKSFNRGEC
notes: also called Ho Ab G237_04F
B7: GpH7-B3 variant A327_10E/GpL16-k0 (antibody, human IgG1, kappa)
heavy: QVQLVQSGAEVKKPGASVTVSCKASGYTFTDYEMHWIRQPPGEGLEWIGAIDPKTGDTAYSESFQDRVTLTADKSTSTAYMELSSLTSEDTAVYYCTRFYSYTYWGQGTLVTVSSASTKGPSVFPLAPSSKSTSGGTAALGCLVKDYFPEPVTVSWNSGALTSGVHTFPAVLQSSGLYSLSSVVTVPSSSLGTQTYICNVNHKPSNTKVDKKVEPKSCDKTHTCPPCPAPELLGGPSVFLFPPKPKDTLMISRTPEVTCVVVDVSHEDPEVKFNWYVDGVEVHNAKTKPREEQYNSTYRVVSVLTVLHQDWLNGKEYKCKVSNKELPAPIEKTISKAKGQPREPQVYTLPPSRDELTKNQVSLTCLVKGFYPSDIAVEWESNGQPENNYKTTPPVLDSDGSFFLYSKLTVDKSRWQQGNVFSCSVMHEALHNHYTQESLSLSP
light: DIVMTQSPLSLPVTPGEPASISCQASESLVHSNRNTYLHWYLQKPGQSPQLLIYKVSNRFSGVPDRFSGSGSGTDFTLKISRVEAEDVGVYYCSQNTHVPPTFGQGTKVEIERTVAAPSVFIFPPSDEQLKSGTASVVCLLNNFYPREAKVQWKVDNALQSGNSQESVTEQDSKDSTYSLSSTLTLSKADYEKHKVYACEVTHQGLSSPVTKSFNRGEC
notes: also called Ho Ab A327_10E
B8: GpH7-B3 variant G236_09D/GpL16-k0 (antibody, human IgG1, kappa)
heavy: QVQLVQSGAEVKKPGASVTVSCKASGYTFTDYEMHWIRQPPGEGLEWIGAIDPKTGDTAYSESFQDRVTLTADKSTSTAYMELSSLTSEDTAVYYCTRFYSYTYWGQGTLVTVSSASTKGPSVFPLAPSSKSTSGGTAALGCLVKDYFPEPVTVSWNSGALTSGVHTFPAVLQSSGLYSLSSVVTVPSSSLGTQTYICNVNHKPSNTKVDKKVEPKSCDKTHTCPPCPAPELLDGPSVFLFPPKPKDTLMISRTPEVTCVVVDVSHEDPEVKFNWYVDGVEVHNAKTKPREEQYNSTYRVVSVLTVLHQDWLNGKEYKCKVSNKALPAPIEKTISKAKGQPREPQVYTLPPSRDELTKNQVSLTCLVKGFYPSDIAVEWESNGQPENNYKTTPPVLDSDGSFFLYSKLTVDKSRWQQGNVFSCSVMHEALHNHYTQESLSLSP
light: DIVMTQSPLSLPVTPGEPASISCQASESLVHSNRNTYLHWYLQKPGQSPQLLIYKVSNRFSGVPDRFSGSGSGTDFTLKISRVEAEDVGVYYCSQNTHVPPTFGQGTKVEIERTVAAPSVFIFPPSDEQLKSGTASVVCLLNNFYPREAKVQWKVDNALQSGNSQESVTEQDSKDSTYSLSSTLTLSKADYEKHKVYACEVTHQGLSSPVTKSFNRGEC
notes: also called Ho Ab G236_09D

The experiment concerns the target T1, FcγRIIb extracellular domain with C-terminal His tag (human, UniProt P31994 43-217).
T1 construct: extracellular domain; also called FcgRIIb; 2b; not shown: His tag at the C terminus
T1 sequence (looked up): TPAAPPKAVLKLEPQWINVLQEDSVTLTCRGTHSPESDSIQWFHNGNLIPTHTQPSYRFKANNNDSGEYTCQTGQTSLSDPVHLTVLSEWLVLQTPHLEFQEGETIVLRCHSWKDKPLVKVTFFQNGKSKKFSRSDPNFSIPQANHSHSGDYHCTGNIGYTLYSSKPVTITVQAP
In words: SPR, relative binding, HoCon Ab = 100. The method, then:
Analysis of interaction between objective antibody and the FcγR was carried out using Biacore T100 (GE Healthcare). HBS-EP+ (GE Healthcare) was used as the running buffer, and the measurement temperature was set to 25° C. Chips produced by immobilizing the antigen peptide by the amine coupling method to a Series S Sencor Chip CM5 (GE Healthcare), or alternatively, chips produced by allowing preliminarily biotinylated antigen peptides to interact with and immobilize onto a Series S Sensor Chip SA (certified) (GE Healthcare) were used. Antibodies of interest were captured onto an antigen peptide-immobilized chip, and allowed to interact to each FcγR diluted with running buffer. To regenerate and repeatedly use the chip, the antibodies captured on the chip were washed off by reacting 10 mM glycine-HCl, pH 1.5.
(SPR reads the build-up and loss of mass on a sensor chip optically.)
With B1, the Ho/Con_2b is 175 % of control.

Take B2: the Ho/Con_2b was 102 % of control.

For the molecule B3, the Ho/Con_2b is 114 % of control.

B4: the Ho/Con_2b is 158 % of control.

As to B5, the Ho/Con_2b is 166 % of control.

B6: the Ho/Con_2b is 140 % of control.

Consider B7, for which the Ho/Con_2b was 148 % of control.

Consider B8, for which the Ho/Con_2b was 207 % of control.
